In US20060035242A1:
Like-named read-outs stand apart in the source and are kept apart here.

Key:
[1] = molecular target: T1, mouse pathogenic prion protein PrP^Sc (RML, in infected Balb-c mouse brain homogenate) (mouse), P04925; assay: bead pull-down from PrPSc+ mouse brain homogenate; ELISA
[2] = molecular target: T1, mouse pathogenic prion protein PrP^Sc …

T1 sequence (P04925 23-230 limits assumed): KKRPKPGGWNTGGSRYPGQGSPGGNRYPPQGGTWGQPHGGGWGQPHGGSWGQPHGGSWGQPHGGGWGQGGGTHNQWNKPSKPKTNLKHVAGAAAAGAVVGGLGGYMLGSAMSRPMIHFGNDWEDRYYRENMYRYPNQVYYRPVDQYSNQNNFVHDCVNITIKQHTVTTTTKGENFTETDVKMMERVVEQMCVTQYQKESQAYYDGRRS

| Binder | ELISA A405 nm [1] | ELISA A405 nm [2] |
| --- | --- | --- |
| GGGNKPSKPK (modifications not checked) [peptide reagent of SEQ ID NO:79] | 0.24 A405 nm |  |
| GGGKKRAKAGG (modifications not checked) [peptide reagent of SEQ ID NO:98] | 1.46 A405 nm |  |
| GGGGPKRKGPK (modifications not checked) [peptide reagent of SEQ ID NO:73] | 1.06 A405 nm |  |
| KKKAGAAAAGAVVGGLGG (modifications not checked) [peptide reagent of SEQ ID NO:65] | 0.635 A405 nm |  |
| GGGKPSKPK (modifications not checked) [peptide reagent of SEQ ID NO:80] | 0.225 A405 nm |  |
| GGGKKRPAPGG (modifications not checked) [peptide reagent of SEQ ID NO:107] |  | 0.578 A405 nm |
| GGGKARPKPGG (modifications not checked) [peptide reagent of SEQ ID NO:105] |  | 0.256 A405 nm |
| GGGKKRPKPGGGKKRPKPGG (modifications not checked) [peptide reagent of SEQ ID NO:72 (tandem repeat)] | 0.522 A405 nm |  |
| GGGKKAPKPGG (modifications not checked) [peptide reagent of SEQ ID NO:106] |  | 0.268 A405 nm |
| GGGKKKKKKKK (modifications not checked) [peptide reagent of SEQ ID NO:85] | 0.53 A405 nm |  |
| GGGAGAAAAGAVVGGLGG (modifications not checked) [peptide reagent of SEQ ID NO:56] | 0.313 A405 nm |  |
